The values that follow come from article PMC9776393, “Gold Nanoparticles-MWCNT Based Aptasensor for Early Diagnosis of Prostate Cancer”.

The data set deals with prostate-specific antigen (PSA) (human (semen), UniProt P07288 25-261). Put plainly: electrochemical aptasensor (DPV); MCH-blocked MWCNT/AuNP electrode; LoD 1 pg/mL, linear 1-100 ng/mL (abstract) or 0.001-100 ng/mL (Table 2); PBS pH 7.2, [Fe(CN)6]3-/4- redox probe, 5 min binding; aptamer heated to 95 C and cooled, immobilized at room temperature with MgCl2 and NaCl; binding temperature not stated. The conditions noted are these: protein: commercial.
Chain of prostate-specific antigen (PSA) (P07288 25-261): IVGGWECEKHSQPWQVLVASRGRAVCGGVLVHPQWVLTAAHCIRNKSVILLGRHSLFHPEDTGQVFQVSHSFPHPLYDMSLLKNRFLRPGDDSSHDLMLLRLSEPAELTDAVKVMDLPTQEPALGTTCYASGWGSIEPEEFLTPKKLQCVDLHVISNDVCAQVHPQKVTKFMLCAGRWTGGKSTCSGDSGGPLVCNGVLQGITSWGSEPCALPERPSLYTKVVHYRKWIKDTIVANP

B1: PSA aptamer (ssDNA)
DNA: TTTTTAATTAAAGCTCGCCATCAAATAGCTTT
modifications: 5'-HS-(CH2)6 thiol
Consider B1, for which the binding result was “binds”.
